In PMC5003437, “Development and Optimization of a Thrombin Sandwich Aptamer Microarray”:

Legend:
human alpha-thrombin [1] = biological target: T1, human alpha-thrombin (Homo sapiens, UniProt P00734;P00734 328-363;364-622); experiment: sandwich aptamer microarray (fluorescence); thrombin captured on immobilized TBA1; LOD 0.75 nM (not Kd); 20 mM Tris, 140 mM NaCl, 5 mM KCl, 1 mM MgCl2, pH 7.5, 25 C; 30 min pre-incubation with TBA2, then 2 h on array; PBS wash
human alpha-thrombin [2] = biological target: T1, human alpha-thrombin; experiment: sandwich aptamer microarray (fluorescence); thrombin captured on immobilized TBA1, Cy3-streptavidin detection; LOD 0.17 nM (not Kd); 20 mM Tris, 140 mM NaCl, 5 mM KCl, 1 mM MgCl2, pH 7.5, 25 C; 30 min pre-incubation with TBA2, then 2 h on array; PBS wash

**Q.** Does AGTCCGTGGTAGGGCAGGTTGGGGTGACT (structured_DNA) [TBA2-Cy5] bind (human alpha-thrombin [1])?
**A.** binds

**Q.** Does AGTCCGTGGTAGGGCAGGTTGGGGTGACT (structured_DNA) [TBA2-biotin] bind (human alpha-thrombin [2])?
**A.** binds
